# Laboratory results: US7141656
# Assays:
# [1] = target: membrane-bound single-chain I-A^d-OVA (SCT1 gene, with the alpha chain transmembrane domain) on transfected NS-0 cells (mouse (I-A^d); chicken (OVA peptide)); assay: flow cytometry, FITC-conjugated 10-3.6 1:100 (negative control), T2 (SCT1-transfectant) cells
# [2] = target: membrane-bound single-chain I-A^d-OVA (SCT1 gene, with the alpha chain transmembrane domain) on transfected NS-0 cells (mouse (I-A^d); chicken (OVA peptide)); assay: flow cytometry, FITC-conjugated 10-3.6 1:100 (negative control), T6 (SCT1-transfectant) cells
# [3] = target: membrane-bound single-chain I-A^d-OVA (SCT1 gene, with the alpha chain transmembrane domain) on transfected NS-0 cells (mouse (I-A^d); chicken (OVA peptide)); assay: flow cytometry, FITC-conjugated 10-3.6 1:100 (negative control), T12 (SCT1-transfectant) cells
# [4] = target: membrane-bound single-chain I-A^d-OVA (SCT1 gene, with the alpha chain transmembrane domain) on transfected NS-0 cells (mouse (I-A^d); chicken (OVA peptide)); assay: flow cytometry, FITC-conjugated AMS 32.1 1:100, T2 (SCT1-transfectant) cells
# [5] = target: membrane-bound single-chain I-A^d-OVA (SCT1 gene, with the alpha chain transmembrane domain) on transfected NS-0 cells (mouse (I-A^d); chicken (OVA peptide)); assay: flow cytometry, FITC-conjugated AMS 32.1 1:100, T6 (SCT1-transfectant) cells
# [6] = target: membrane-bound single-chain I-A^d-OVA (SCT1 gene, with the alpha chain transmembrane domain) on transfected NS-0 cells (mouse (I-A^d); chicken (OVA peptide)); assay: flow cytometry, FITC-conjugated AMS 32.1 1:100, T12 (SCT1-transfectant) cells
# [7] = target: soluble single-chain I-A^d-OVA (SSC1 gene; 6xHis tag), produced in SF9 insect cells (mouse (I-A^d); chicken (OVA peptide)); assay: sandwich I-A^d ELISA, M5/114 capture, biotinylated AMS-32.1 probe; supernatant of virus clone C6
# [8] = target: soluble single-chain I-A^d-OVA (SSC1 gene; 6xHis tag), produced in SF9 insect cells (mouse (I-A^d); chicken (OVA peptide)); assay: sandwich I-A^d ELISA, M5/114 capture, biotinylated AMS-32.1 probe; supernatant of virus clone F8
# [9] = target: soluble single-chain I-A^d-OVA (SSC1 gene; 6xHis tag), produced in SF9 insect cells (mouse (I-A^d); chicken (OVA peptide)); assay: sandwich I-A^d ELISA, M5/114 capture, biotinylated AMS-32.1 probe, 405 nm; cotransfection supernatant undiluted
# [10] = target: soluble single-chain I-A^d-OVA (SSC1 gene; 6xHis tag), produced in SF9 insect cells (mouse (I-A^d); chicken (OVA peptide)); assay: sandwich I-A^d ELISA, M5/114 capture, biotinylated AMS-32.1 probe, 405 nm; cotransfection supernatant diluted 1:2
# [11] = target: soluble single-chain I-A^d-OVA (SSC1 gene; 6xHis tag), produced in SF9 insect cells (mouse (I-A^d); chicken (OVA peptide)); assay: sandwich I-A^d ELISA, M5/114 capture, biotinylated AMS-32.1 probe, 405 nm; cotransfection supernatant diluted 1:4
# [12] = target: soluble single-chain I-A^d-OVA (SSC1 gene; 6xHis tag), produced in SF9 insect cells (mouse (I-A^d); chicken (OVA peptide)); assay: sandwich I-A^d ELISA, M5/114 capture, biotinylated AMS-32.1 probe, 405 nm; cotransfection supernatant diluted 1:8
# [13] = target: Neuron Specific Enolase (NSE), in supernatant of SF9 cells infected with a recombinant Baculovirus; assay: sandwich I-A^d ELISA, M5/114 capture, biotinylated AMS-32.1 probe; supernatant of SF9 cells infected with NSE Baculovirus
# [14] = target: soluble single-chain I-A^d-OVA with EE antibody tag (SCE1 gene), secreted by transfected NSO cells (mouse (I-A^d); chicken (OVA peptide)); assay: sandwich I-A^d ELISA of Example 18 (M5/114 capture, biotinylated AMS-32.1 probe); undiluted supernatant of E10 (SCE1 transfectant)
# [15] = target: soluble single-chain I-A^d-OVA with EE antibody tag (SCE1 gene), secreted by transfected NSO cells (mouse (I-A^d); chicken (OVA peptide)); assay: sandwich I-A^d ELISA of Example 18 (M5/114 capture, biotinylated AMS-32.1 probe); undiluted supernatant of E11 (SCE1 transfectant)
# [16] = target: soluble single-chain I-A^d-OVA (SSC1 gene; 6xHis tag), produced in SF9 insect cells (mouse (I-A^d); chicken (OVA peptide)); assay: sandwich I-A^d ELISA of Example 18 (M5/114 capture, biotinylated AMS-32.1 probe); sc I-A^d-OVA from insect cell culture (positive control)
# [17] = target: full-length murine I-A^d/OVA 323-339 MHC class II fusion complex (pJRS165.1) expressed on NSO cells (mouse; chicken) (UniProt P04228); assay: flow cytometry, FITC-conjugated isotype matched irrelevant antibody 1:100, clone NSO/IA^d/OVA.A4
# [18] = target: full-length murine I-A^d/OVA 323-339 MHC class II fusion complex (pJRS165.1) expressed on NSO cells (mouse; chicken) (UniProt P04228); assay: flow cytometry, FITC-conjugated isotype matched irrelevant antibody 1:100, clone NSO/IA^d/OVA.B2
# [19] = target: full-length murine I-A^d/OVA 323-339 MHC class II fusion complex (pJRS165.1) expressed on NSO cells (mouse; chicken) (UniProt P04228); assay: flow cytometry, FITC-conjugated isotype matched irrelevant antibody 1:100, clone NSO/IA^d/OVA.B4
# [20] = target: full-length murine I-A^d/OVA 323-339 MHC class II fusion complex (pJRS165.1) expressed on NSO cells (mouse; chicken) (UniProt P04228); assay: flow cytometry, FITC-conjugated isotype matched irrelevant antibody 1:100, clone NSO/IA^d/OVA.B5
# [21] = target: murine class II MHC molecule I-A^d on A20.1-11 cells (mouse) (UniProt P04228); assay: flow cytometry, FITC-conjugated isotype matched irrelevant antibody 1:100, A20.1 cells (+ control)
# [22] = target: T cell receptor of the murine T cell hybridoma DO11.10 (specific for OVA 323-339 in the context of I-A^d) (mouse); assay: cell-based or functional assay
molecule,measurement,setting,value
"10-3.6 anti-I-A^k antibody (PharMingen), isotype matched negative control",Mean Fluorescence,[1],22
same,Mean Fluorescence,[2],45.1
same,Mean Fluorescence,[3],45.9
AMS-32.1 anti-IA^d monoclonal antibody (PharMingen),Mean Fluorescence,[4],613
same,Mean Fluorescence,[5],418
same,Mean Fluorescence,[6],911
same,Absorbance,[7],1.56
same,Absorbance,[8],1.45
same,Absorbance,[9],0.857
same,Absorbance,[10],0.524
same,Absorbance,[11],0.305
same,Absorbance,[12],0.165
same,Absorbance,[13],0.098
same,Absorbance,[14],0.781
same,Absorbance,[15],0.96
same,Absorbance,[16],2.44
"FITC-conjugated anti-IA^k antibody (Pharmingen), isotype matched irrelevant antibody, Example 13",peak channel fluorescence,[17],34
same,peak channel fluorescence,[18],14
same,peak channel fluorescence,[19],11
same,peak channel fluorescence,[20],10
same,peak channel fluorescence,[21],5
"membrane-bound single-chain I-A^d-OVA (SCT1 gene, with the alpha chain transmembrane domain) on transfected NS-0 cells (peptide-MHC) TMALQIPSLLLSAAVVVLMVLSSPRTLSISQAVHAAHAEINEAGRASGGGGSGGGGNSERHFVVQFKGECYYTNGTQRIRLVTRYIYNREEYVRYDSDVGEYRAVTELGRPDAEYWNSQPEILERTRAEVDTACRHNYEGPETSTSLRRLEQPNVAISLSRTEALNHHNTLVCSVTDFYPAKIKVRWFRNGQEETVGVSSTQLIRNGDWTFQVLVMLEMTPHQGEVYTCHVEHPSLKSPITVEWTSGGGGSGGGGSGGGGSGGGGSSSEDDIEADHVGFYGTTVYQSPGDIGQYTHEFDGDELFYVDLDKKKTVWRLPEFGQLILFEPQGGLQNIAAEKHNLGILTKRSNFTPATNEAPQATVFPKSPVLLGQPNTLICFVDNIFPPVINITWLRNSKSVTDGVYETSFLVNRDHSFHKLSYLTFIPSDDDIYDCKVEHWGLEEPVLKHWEPEIPAPMSELTETVVCALGLSVGLVGIVVGTIFIIQGLRSGGTSRHPGPL","IL-2 ELISA result (Absorbance), DO11.10 with T2 (SCT1 transfectant) cells",[22],0.758
same,"IL-2 ELISA result (Absorbance), DO11.10 with T6 (SCT1 transfectant) cells",[22],0.307
same,"IL-2 ELISA result (Absorbance), DO11.10 with T12 (SCT1 transfectant) cells",[22],1.03
"soluble single-chain I-A^d-OVA (SSC1 gene; 6xHis tag), produced in SF9 insect cells (peptide-MHC) TMALQIPSLLLSAAVVVLMVLSSPRTLSISQAVHAAHAEINEAGRASGGGGSGGGGNSERHFVVQFKGECYYTNGTQRIRLVTRYIYNREEYVRYDSDVGEYRAVTELGRPDAEYWNSQPEILERTRAEVDTACRHNYEGPETSTSLRRLEQPNVAISLSRTEALNHHNTLVCSVTDFYPAKIKVRWFRNGQEETVGVSSTQLIRNGDWTFQVLVMLEMTPHQGEVYTCHVEHPSLKSPITVEWTSGGGGSGGGGSGGGGSGGGGSSSEDDIEADHVGFYGTTVYQSPGDIGQYTHEFDGDELFYVDLDKKKTVWRLPEFGQLILFEPQGGLQNIAAEKHNLGILTKRSNFTPATNEAPQATVFPKSPVLLGQPNTLICFVDNIFPPVINITWLRNSKSVTDGVYETSFLVNRDHSFHKLSYLTFIPSDDDIYDCKVEHWGLEEPVLKHWSRASHHHHHH","IL-2 concentration in DO11 super (U/ml) at 39 ng/well immobilized scIA^d-OVA, extended dilution",[22],0 U/ml
same,IL-2 concentration in DO11 super (U/ml) at 78 ng/well immobilized sc IA^d-OVA,[22],45 U/ml
same,"IL-2 concentration in DO11 super (U/ml) at 78 ng/well immobilized scIA^d-OVA, extended dilution",[22],17 U/ml
same,IL-2 concentration in DO11 super (U/ml) at 156 ng/well immobilized sc IA^d-OVA,[22],100 U/ml
same,"IL-2 concentration in DO11 super (U/ml) at 156 ng/well immobilized scIA^d-OVA, extended dilution",[22],24 U/ml
same,IL-2 concentration in DO11 super (U/ml) at 312 ng/well immobilized sc IA^d-OVA,[22],109 U/ml
same,"IL-2 concentration in DO11 super (U/ml) at 312 ng/well immobilized scIA^d-OVA, extended dilution",[22],35 U/ml
same,IL-2 concentration in DO11 super (U/ml) at 625 ng/well immobilized sc IA^d-OVA,[22],116 U/ml
same,"IL-2 concentration in DO11 super (U/ml) at 625 ng/well immobilized scIA^d-OVA, extended dilution",[22],38 U/ml
same,IL-2 concentration in DO11 super (U/ml) at 1250 ng/well immobilized sc IA^d-OVA,[22],126 U/ml
same,IL-2 concentration in DO11 super (U/ml) at 2500 ng/well immobilized sc IA^d-OVA,[22],143 U/ml
same,IL-4 concentration in DO11 super (U/ml) at 78 ng/well immobilized sc IA^d-OVA,[22],7 U/ml
same,IL-4 concentration in DO11 super (U/ml) at 156 ng/well immobilized sc IA^d-OVA,[22],10 U/ml
same,IL-4 concentration in DO11 super (U/ml) at 312 ng/well immobilized sc IA^d-OVA,[22],16 U/ml
same,IL-4 concentration in DO11 super (U/ml) at 625 ng/well immobilized sc IA^d-OVA,[22],15 U/ml
same,IL-4 concentration in DO11 super (U/ml) at 1250 ng/well immobilized sc IA^d-OVA,[22],20 U/ml
same,IL-4 concentration in DO11 super (U/ml) at 2500 ng/well immobilized sc IA^d-OVA,[22],23 U/ml
same,"IL-r [IL-4] concentration in DO11 super (U/ml) at 39 ng/well immobilized scIA^d-OVA, extended dilution",[22],0 U/ml
same,"IL-r [IL-4] concentration in DO11 super (U/ml) at 78 ng/well immobilized scIA^d-OVA, extended dilution",[22],0.8 U/ml
same,"IL-r [IL-4] concentration in DO11 super (U/ml) at 156 ng/well immobilized scIA^d-OVA, extended dilution",[22],0.9 U/ml
same,"IL-r [IL-4] concentration in DO11 super (U/ml) at 312 ng/well immobilized scIA^d-OVA, extended dilution",[22],1.5 U/ml
same,"IL-r [IL-4] concentration in DO11 super (U/ml) at 625 ng/well immobilized scIA^d-OVA, extended dilution",[22],2 U/ml
